Assays:
[1] = target: EcoKI Type I RM enzyme (E. coli (endogenous in E. coli NM1049(DE3))) (UniProt P08956)
[2] = target: L127E ArdA (Streptococcus faecalis (Tn916 conjugative transposon)); test: AUC; sedimentation equilibrium at 15 μM (monomers); 17 000, 27 000 and 35 000 r.p.m.; 20 °C; 200 mM NaCl, 20 mM Tris, 20 mM MES, 1 mM TCEP, pH 6.5; SEDPHAT; dimer to monomers
[3] = target: WT ORF18 ArdA (Streptococcus faecalis (Tn916 conjugative transposon)); test: AUC; sedimentation equilibrium at 3.0 μM and 0.6 μM (monomers); 17 000, 27 000 and 35 000 r.p.m.; 20 °C; 200 mM NaCl, 20 mM Tris, 20 mM MES, 1 mM TCEP, pH 6.5; SEDPHAT
[4] = target: WT ORF18 ArdA (Streptococcus faecalis (Tn916 conjugative transposon)); test: AUC; sedimentation equilibrium at 15 μM (monomers); 17 000, 27 000 and 35 000 r.p.m.; 20 °C; 200 mM NaCl, 20 mM Tris, 20 mM MES, 1 mM TCEP, pH 6.5; SEDPHAT; dimer to monomers

| Substance | antimodification in vivo: titre ratio of phage λv.0 recovered from E. coli NM1049(DE3) expressing the ArdA protein (WT ORF18 ArdA 122.0; vector 0.9) [1] | Kd [2] [µM] | stoichiometry N [2] | stoichiometry N [3] | stoichiometry N [4] |
| --- | --- | --- | --- | --- | --- |
| L127E ArdA (natural protein) | 1 | 10 | 2 |  |  |
| WT ORF18 ArdA (natural protein) |  |  |  | 2 | 2 |

Source: PMC3906837
